The assay has as its target nucleosome reconstituted with human core histones and Widom 601 DNA (human, UniProt P04908 2-130; P06899 1-126; P68431 1-136; P62805 2-103). The assay can be described thus: MST.

B1: His6-tagged RING domain heterodimer, GA mutant (GST-RING^A T948G^A-T952A^A with His6-Twin-Strep-Rad6A-RING^B) (complex)
chain 1: PDNVPKCDEILMEEIKDYKARLTCPCCNMRKKDAVLTKCFHVFCFECVKGRYDARQRKCPKCNAAFGANDFHRIYIG
chain 2: MSTPARRRLMRDFKRLQEDPPAGVSGAPSENNIMVWNAVIFGPEGTPFEDGTFKLTIEFTEEYPNKPPTVRFVSKMFHPNVYADGSICLDILQNRWSPTYDVSSILTSIQSLLDEPNPNSPANSQAAQLYQENKREYEKRVSAIVEQSWRDCVEVYADADEILQEEIKEYKARLTCPCCNTRKKDAVLTKCFHVFCFECVRGRYEARQRKCPKCNAAFGAHDFHRIYIS
modifications: RED-Tris-NTA label on the His6 tag
Regarding B1, the Kd was 11.8 nM.

B2: His6-tagged RING domain heterodimer, wild type (GST-RING^A with His6-Twin-Strep-Rad6A-RING^B) (complex)
chain 1: PDNVPKCDEILMEEIKDYKARLTCPCCNMRKKDAVLTKCFHVFCFECVKTRYDTRQRKCPKCNAAFGANDFHRIYIG
chain 2: MSTPARRRLMRDFKRLQEDPPAGVSGAPSENNIMVWNAVIFGPEGTPFEDGTFKLTIEFTEEYPNKPPTVRFVSKMFHPNVYADGSICLDILQNRWSPTYDVSSILTSIQSLLDEPNPNSPANSQAAQLYQENKREYEKRVSAIVEQSWRDCVEVYADADEILQEEIKEYKARLTCPCCNTRKKDAVLTKCFHVFCFECVRGRYEARQRKCPKCNAAFGAHDFHRIYIS
modifications: RED-Tris-NTA label on the His6 tag
B2 came in with a Kd of 7.8 nM.

B3: His6-tagged RING domain heterodimer, TT mutant (GST-RING^A with His6-Twin-Strep-Rad6A-RING^B G974T^B-A978T^B) (complex)
chain 1: PDNVPKCDEILMEEIKDYKARLTCPCCNMRKKDAVLTKCFHVFCFECVKTRYDTRQRKCPKCNAAFGANDFHRIYIG
chain 2: MSTPARRRLMRDFKRLQEDPPAGVSGAPSENNIMVWNAVIFGPEGTPFEDGTFKLTIEFTEEYPNKPPTVRFVSKMFHPNVYADGSICLDILQNRWSPTYDVSSILTSIQSLLDEPNPNSPANSQAAQLYQENKREYEKRVSAIVEQSWRDCVEVYADADEILQEEIKEYKARLTCPCCNTRKKDAVLTKCFHVFCFECVRTRYETRQRKCPKCNAAFGAHDFHRIYIS
modifications: RED-Tris-NTA label on the His6 tag
The molecule B3 returned a Kd of 7.3 nM.

B4: His6-tagged RING domain heterodimer, GA + TT mutant (GST-RING^A T948G^A-T952A^A with His6-Twin-Strep-Rad6A-RING^B G974T^B-A978T^B) (complex)
chain 1: PDNVPKCDEILMEEIKDYKARLTCPCCNMRKKDAVLTKCFHVFCFECVKGRYDARQRKCPKCNAAFGANDFHRIYIG
chain 2: MSTPARRRLMRDFKRLQEDPPAGVSGAPSENNIMVWNAVIFGPEGTPFEDGTFKLTIEFTEEYPNKPPTVRFVSKMFHPNVYADGSICLDILQNRWSPTYDVSSILTSIQSLLDEPNPNSPANSQAAQLYQENKREYEKRVSAIVEQSWRDCVEVYADADEILQEEIKEYKARLTCPCCNTRKKDAVLTKCFHVFCFECVRTRYETRQRKCPKCNAAFGAHDFHRIYIS
modifications: RED-Tris-NTA label on the His6 tag
For B4, the Kd stood at 34 nM.

For orientation: Kd means the free concentration of one partner at which half of the binding sites on the other are occupied at equilibrium, for simple one-to-one binding. Low readings indicate a tighter complex, high ones a looser complex.

(Values after paper PMC10959955 (2024).)
